Data from the supplement of paper PMC9112550, “Optimization of the antimicrobial peptide Bac7 by deep mutational scanning” (BMC Biology, 2022).

test system: Escherichia coli TOP10; assay: shrunken log2 fold change of peptide-encoding DNA abundance (4.5 h post-induction vs induction); higher = less antimicrobial activity (less host growth inhibition); conditions: time post-induction: 4.5 h; library: site-saturation at positions 5, 18, 19, 20
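Also: peptides expressed intracellularly from a pBAD plasmid library in pooled LB shake-flask culture, induced with 0.3% L-arabinose, DNA abundance read by NGS, three biological replicates, DESeq2 with apeglm shrinkage.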

Row | Sequence | shrunken log2 fold change
1 | RRIRFRPPRLPRPRPRPNVGPRP | -0.0278
2 | RRIRWRPPRLPRPRPRPALSPRP | -0.0314
3 | RRIRDRPPRLPRPRPRPQKEPRP | -0.0595
4 | RRIRLRPPRLPRPRPRPEYMPRP | -0.741
5 | RRIRHRPPRLPRPRPRPFTDPRP | -0.1
6 | RRIRRRPPRLPRPRPRPETWPRP | 0.234
7 | RRIRQRPPRLPRPRPRPLELPRP | 0.0289
8 | RRIRERPPRLPRPRPRPEITPRP | -0.045
9 | RRIRCRPPRLPRPRPRPYKWPRP | -0.636
10 | RRIRVRPPRLPRPRPRPEWAPRP | 0.0253
11 | RRIRFRPPRLPRPRPRPSFQPRP | -0.145
12 | RRIRARPPRLPRPRPRPKGQPRP | 0.296
13 | RRIRDRPPRLPRPRPRPEMQPRP | -0.0247
14 | RRIRSRPPRLPRPRPRPILGPRP | -0.016
15 | RRIRMRPPRLPRPRPRPVMLPRP | -0.28
16 | RRIRFRPPRLPRPRPRPGPPPRP | 0.909
17 | RRIRKRPPRLPRPRPRPLMAPRP | 0.635
18 | RRIRFRPPRLPRPRPRPAPWPRP | 0.592
19 | RRIRARPPRLPRPRPRPIDLPRP | 0.289
20 | RRIRKRPPRLPRPRPRPMGNPRP | 0.111
21 | RRIRPRPPRLPRPRPRPSVSPRP | -0.504
22 | RRIRNRPPRLPRPRPRPHADPRP | -0.315
23 | RRIRLRPPRLPRPRPRPVAQPRP | 0.391
24 | RRIRWRPPRLPRPRPRPQDWPRP | 0.36
25 | RRIRTRPPRLPRPRPRPHNSPRP | -1.22

Row | Sequence | shrunken log2 fold change
26 | RRIRCRPPRLPRPRPRPSGSPRP | -0.125
27 | RRIRQRPPRLPRPRPRPYLNPRP | -0.329
28 | RRIRIRPPRLPRPRPRPQKWPRP | -0.0915
29 | RRIRMRPPRLPRPRPRPSGSPRP | 0.133
30 | RRIRNRPPRLPRPRPRPFVLPRP | -0.451
31 | RRIRYRPPRLPRPRPRPIQRPRP | -0.00865
32 | RRIRYRPPRLPRPRPRPFYLPRP | -0.955
33 | RRIRGRPPRLPRPRPRPQSYPRP | 0.113
34 | RRIRDRPPRLPRPRPRPINWPRP | -0.044
35 | RRIRFRPPRLPRPRPRPMPCPRP | -0.557
36 | RRIRFRPPRLPRPRPRPHTYPRP | -0.554
37 | RRIRRRPPRLPRPRPRPPPMPRP | 0.959
38 | RRIRDRPPRLPRPRPRPQQVPRP | 0.0253
39 | RRIRDRPPRLPRPRPRPARSPRP | 0.0403
40 | RRIRGRPPRLPRPRPRPDEKPRP | 0.233
41 | RRIRNRPPRLPRPRPRPIILPRP | -0.234
42 | RRIRNRPPRLPRPRPRPGALPRP | 0.0726
43 | RRIRPRPPRLPRPRPRPAGTPRP | -0.07
44 | RRIRARPPRLPRPRPRPIPDPRP | 0.604
45 | RRIRQRPPRLPRPRPRPVNSPRP | -0.0167
46 | RRIRGRPPRLPRPRPRPMHFPRP | -0.0109
47 | RRIRKRPPRLPRPRPRPIQNPRP | 0.151
48 | RRIRTRPPRLPRPRPRPRTCPRP | 1.21
49 | RRIRCRPPRLPRPRPRPIGSPRP | -0.139
50 | RRIRFRPPRLPRPRPRPMMFPRP | 0.126

Row | Sequence | shrunken log2 fold change
51 | RRIRFRPPRLPRPRPRPAFEPRP | 0.226
52 | RRIRLRPPRLPRPRPRPYGPPRP | -0.161
53 | RRIRQRPPRLPRPRPRPVDRPRP | -0.0864
54 | RRIRRRPPRLPRPRPRPWIWPRP | -0.282
55 | RRIRHRPPRLPRPRPRPFYEPRP | -0.108
56 | RRIRWRPPRLPRPRPRPMKCPRP | -0.0018
57 | RRIRRRPPRLPRPRPRPHDEPRP | 0.18
58 | RRIRHRPPRLPRPRPRPKMYPRP | -0.289
59 | RRIRLRPPRLPRPRPRPSHLPRP | -0.491
60 | RRIRERPPRLPRPRPRPRQDPRP | -0.0529
61 | RRIRPRPPRLPRPRPRPSMYPRP | -0.676
62 | RRIRMRPPRLPRPRPRPVMSPRP | 0.134
63 | RRIRIRPPRLPRPRPRPLNVPRP | -1.23
64 | RRIRDRPPRLPRPRPRPKSWPRP | 0.421
65 | RRIRYRPPRLPRPRPRPKNHPRP | -0.919
66 | RRIRPRPPRLPRPRPRPSCDPRP | -0.273
67 | RRIRFRPPRLPRPRPRPINCPRP | -0.257
68 | RRIRSRPPRLPRPRPRPCYSPRP | -0.839
69 | RRIRVRPPRLPRPRPRPFLMPRP | -0.208
70 | RRIRGRPPRLPRPRPRPYKGPRP | -0.236
71 | RRIRPRPPRLPRPRPRPVWDPRP | 0.212
72 | RRIRDRPPRLPRPRPRPAKDPRP | -0.0015
73 | RRIRHRPPRLPRPRPRPKSQPRP | -0.149
74 | RRIRERPPRLPRPRPRPLYGPRP | -0.136
75 | RRIRIRPPRLPRPRPRPQYFPRP | -0.128
